Molecular target: Myc-Sharp-1-bHLH (UniProt Q99PV5)
UniProt Q99PV5, sequence (Q99PV5 44-99): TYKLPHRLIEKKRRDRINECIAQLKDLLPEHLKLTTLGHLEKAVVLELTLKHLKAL

FLAG-G9a (full-length G9a) (from UniProt Q9Z148 1-1263) (enzyme)
inhibition of MyoD activity (pMyog-Luc reporter) by Sharp-1-bHLH: 50%
